Test results reported in patent US20260137822A1 (ABDERA THERAPEUTICS, published 2026).
Each block holds one binder with its values, some of them ahead of it.

Tests used:
[1] = molecular target: T1, DLL3 on cells (SHP-77, NCI-H82, HEK-DLL3) (UniProt Q9NYJ7 27-618); assay: flow cytometry, SHP-77 cells
T1 construct: whole, on cells; also called DLL3-positive cell lines
T1 sequence (looked up): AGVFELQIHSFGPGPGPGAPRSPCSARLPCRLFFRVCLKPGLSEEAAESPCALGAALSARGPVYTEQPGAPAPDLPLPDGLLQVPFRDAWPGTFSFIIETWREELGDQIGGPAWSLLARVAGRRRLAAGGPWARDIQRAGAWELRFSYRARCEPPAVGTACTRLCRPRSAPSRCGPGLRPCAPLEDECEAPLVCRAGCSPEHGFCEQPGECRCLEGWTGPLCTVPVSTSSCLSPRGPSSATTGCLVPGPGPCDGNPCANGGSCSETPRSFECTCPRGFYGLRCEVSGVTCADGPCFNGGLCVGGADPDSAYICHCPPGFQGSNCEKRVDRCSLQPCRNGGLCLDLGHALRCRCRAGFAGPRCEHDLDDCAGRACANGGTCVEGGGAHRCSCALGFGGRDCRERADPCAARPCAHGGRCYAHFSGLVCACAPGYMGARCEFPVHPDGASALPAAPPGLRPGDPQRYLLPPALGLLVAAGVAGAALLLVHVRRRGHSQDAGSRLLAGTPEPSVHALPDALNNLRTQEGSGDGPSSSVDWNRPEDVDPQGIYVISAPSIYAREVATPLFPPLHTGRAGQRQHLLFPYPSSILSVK

[2] = molecular target: T2, human DLL3.FLAG (Adipogen #AG-40B-0151, amino acid 27-466) (human, UniProt Q9NYJ7 27-466); assay: ELISA on coated hDLL3-Flag, A450nm against nM antibody
T2 construct: range 27-466; Carries a FLAG tag
T2 sequence (looked up): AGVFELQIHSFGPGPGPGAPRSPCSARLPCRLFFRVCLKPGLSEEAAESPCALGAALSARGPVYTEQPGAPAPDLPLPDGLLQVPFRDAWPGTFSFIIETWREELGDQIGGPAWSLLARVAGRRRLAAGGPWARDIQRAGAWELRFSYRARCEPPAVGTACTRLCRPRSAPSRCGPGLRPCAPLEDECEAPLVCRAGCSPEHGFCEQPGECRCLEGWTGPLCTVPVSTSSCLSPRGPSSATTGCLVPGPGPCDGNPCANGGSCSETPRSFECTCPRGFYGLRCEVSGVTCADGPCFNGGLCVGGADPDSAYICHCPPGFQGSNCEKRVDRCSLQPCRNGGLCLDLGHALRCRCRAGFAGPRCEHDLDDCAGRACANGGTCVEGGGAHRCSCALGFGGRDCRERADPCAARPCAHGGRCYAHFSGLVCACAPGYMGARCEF

[3] = molecular target: T1, DLL3 on cells (SHP-77, NCI-H82, …); assay: flow cytometry, HEK-DLL3 cells
[4] = molecular target: T1, DLL3 on cells (SHP-77, NCI-H82, …); assay: flow cytometry on SHP-77 cells (DLL3-positive), MFI against nM antibody
[5] = molecular target: T3, human DLL3 (recombinant antigen) (human, UniProt Q9NYJ7 27-492, limits assumed); assay: BLI (Octet), VHH-Fc captured on AHC biosensor, hDLL3 as analyte
T3 construct: also called hDLL3
T3 sequence (looked up): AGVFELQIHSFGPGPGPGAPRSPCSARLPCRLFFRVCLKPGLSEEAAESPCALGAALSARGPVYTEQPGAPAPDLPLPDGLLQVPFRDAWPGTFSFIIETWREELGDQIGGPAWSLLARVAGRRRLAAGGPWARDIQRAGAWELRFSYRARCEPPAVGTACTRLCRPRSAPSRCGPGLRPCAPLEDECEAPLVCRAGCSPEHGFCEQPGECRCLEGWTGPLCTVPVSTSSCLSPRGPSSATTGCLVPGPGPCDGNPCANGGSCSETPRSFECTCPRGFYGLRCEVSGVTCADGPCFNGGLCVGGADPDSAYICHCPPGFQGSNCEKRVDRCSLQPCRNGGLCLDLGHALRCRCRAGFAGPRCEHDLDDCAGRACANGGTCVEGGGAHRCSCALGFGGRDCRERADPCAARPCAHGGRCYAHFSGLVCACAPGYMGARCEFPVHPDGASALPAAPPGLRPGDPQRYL

[6] = molecular target: T4, FOLR1 on cells (OVCAR3, OV-90) (UniProt P15328 25-234); assay: flow cytometry on FOLR1 expressing OV-90 cells, Geomeans RL1-H against Conc (nM) [top panel]
T4 construct: whole, on cells; also called FOLR1-positive OVCAR3 cells; FOLR1 expressing OV-90 cells
T4 sequence (P15328 25-234): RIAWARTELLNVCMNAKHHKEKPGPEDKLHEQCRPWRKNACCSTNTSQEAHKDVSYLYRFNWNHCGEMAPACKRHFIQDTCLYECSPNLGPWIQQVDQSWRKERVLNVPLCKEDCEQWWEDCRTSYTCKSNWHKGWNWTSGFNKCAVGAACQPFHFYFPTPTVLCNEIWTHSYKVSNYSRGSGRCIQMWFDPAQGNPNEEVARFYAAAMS

[7] = molecular target: T5, mouse FOLR1 (recombinant antigen) (mouse, UniProt P35846 25-232, limits assumed); assay: ELISA on mFOLR1
T5 construct: also called mFOLR1
T5 sequence (P35846 25-232 limits assumed): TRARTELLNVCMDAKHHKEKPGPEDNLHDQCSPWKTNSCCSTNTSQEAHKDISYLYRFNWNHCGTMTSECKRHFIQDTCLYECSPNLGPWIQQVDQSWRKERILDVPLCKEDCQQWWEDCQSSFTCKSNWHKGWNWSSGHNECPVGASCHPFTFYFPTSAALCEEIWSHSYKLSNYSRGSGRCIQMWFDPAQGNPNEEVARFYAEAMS

[8] = molecular target: T6, mouse DLL3 (recombinant antigen) (mouse, UniProt O88516 25-477, limits assumed); assay: BLI (Octet), VHH-Fc captured on AHC biosensor, mDLL3 as analyte
T6 construct: also called mDLL3
T6 sequence (looked up): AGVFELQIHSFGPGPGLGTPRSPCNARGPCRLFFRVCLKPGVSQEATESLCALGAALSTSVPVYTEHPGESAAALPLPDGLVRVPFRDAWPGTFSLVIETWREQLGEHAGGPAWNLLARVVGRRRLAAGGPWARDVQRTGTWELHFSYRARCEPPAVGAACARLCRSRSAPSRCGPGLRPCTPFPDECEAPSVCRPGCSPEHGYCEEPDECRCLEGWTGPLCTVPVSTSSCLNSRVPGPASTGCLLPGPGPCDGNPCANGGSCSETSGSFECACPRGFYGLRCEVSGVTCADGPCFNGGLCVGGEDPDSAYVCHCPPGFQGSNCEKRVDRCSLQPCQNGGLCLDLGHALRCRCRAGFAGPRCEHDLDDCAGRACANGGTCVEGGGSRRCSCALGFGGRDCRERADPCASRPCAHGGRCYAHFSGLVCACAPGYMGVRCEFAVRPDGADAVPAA

[9] = molecular target: T7, human FOLR1 (recombinant antigen) (human, UniProt P15328 25-234, limits assumed); assay: ELISA on hFOLR1
T7 construct: also called hFOLR1
T7 sequence (P15328 25-234 limits assumed): as the sequence (P15328 25-234) above

[10] = molecular target: T4, FOLR1 on cells (OVCAR3, OV-90); assay: flow cytometry on FOLR1 expressing OV-90 cells, Geomeans RL1-H against Conc (nM) [bottom panel]

EC50 [1]: 0.11 nM
EC50 (read off the curve) [2]: ~0.09 nM
EC50 [3]: 0.06 nM
EC50 (read off the curve) [4]: ~0.1 nM
B1: Rovalpituzumab (Creative Biolabs #TAB-216CL) (antibody, V domains shown)
VH: QVQLVQSGAEVKKPGASVKVSCKASGYTFTNYGMNWVRQAPGQGLEWMGWINTYTGEPTYADDFKGRVTMTTDTSTSTAYMELRSLRSDDTAVYYCARIGDSSPSDYWGQGTLVTVSS
VL: EIVMTQSPATLSVSPGERATLSCKASQSVSNDVVWYQQKPGQAPRLLIYYASNRYTGIPARFSGSGSGTEFTLTISSLQSEDFAVYYCQQDYTSPWTFGQGTKLEIK

Kd [5]: 2.29 nM
koff [5]: 0.000379 s⁻¹
kon [5]: 166000 M⁻¹ s⁻¹
binding result [6]: no binding (tested: 200 nM)
binding result [7]: no binding
koff [8]: 0.000267 s⁻¹
kon [8]: 215000 M⁻¹ s⁻¹
binding result [9]: no binding
B2: DLL3 VHH (VHH-Fc control) (Fc fusion, not shown: a dimerising Fc or GST)
chain: EVQLVESGGGEVQPGGSLRLSCAASGSIFSINAMGWYRQAPGKQRELVAGFTGDTNTIYAESVKGRFTISRDNAKNTVYLQMSSLRAEDTAVYYCAADVQLFSRDYEFYWGQGTLVTVKP

EC50 (read off the curve) [10]: ~3 nM
B3: bispecific anti-h/mFOLR1/h/mDLL3 (GGS)3 tetramer, p-SCN-Bn-DOTA conjugate (bispecific antibody)
chain (part 1 of 2): QVQLVESGGGLVQPGGSLRLSCAASGFTVSNSVMAWYRQTPGNEREFVAIINSIGITNYADSVKGRFTISRDNSKNTLYLQMNSLRAEDTAVYVCNRNFDRIYWGQGTLVTVSSGGSGGSGGSEVQLVESGGGEVQPGGSLRLSCAASGSIFSINAMGWYRQAPGKQRELVAGFTGDTNTIYAESVKGRFTISRDNAKNTVYLQMSSLRAEDTAVYYCAADVQLFSRDYEFYWGQGTLVTVKP
chain (part 2 of 2): not shown
modifications: conjugated with p-SCN-Bn-DOTA
notes: Chelator conjugate of m63; not shown: hinge
